Here are results for one molecule from patent US20200010853, “METHOD FOR INSERTING DESIRED DNA FRAGMENT INTO SITE LOCATED ADJACENT TO BINDING DOMAIN OF DNA-BINDING PROTEIN” (KYUSHU UNIVERSITY, NATIONAL UNIVERSITY CORPORATION, published 2020).

The data set concerns the target Tn5 transposase (UniProt Q46731 Q46731:1-476). Briefly: free adaptor added to Tn5 in fixed cells; integration with 5 mM MgCl2, 37 C; binding not measured separately. Conditions: chain copies: 2; partial duplex with 5' overhang. The procedure: Subsequently, TN5 transposase was added to the sample at a concentration of 85 μg/mL, and incubated at room temperature for 10 minutes. Thereby, transposase was bound to the transposase-binding sequence in the DNA fragment labeled to the nucleic acid-labeled secondary antibody.
Subsequently, a free DNA fragment (hereinafter, referred to as “oligo3-4”) having a transposase-binding sequence was added to the sample, reacted at room temperature for 1 hour, and then washed with PBS. The oligo3-4 was obtained by annealing a DNA fragment having a base sequence described in the Seq ID No. 3 and a DNA fragment having a base sequence described in the Seq ID No. 4. A double stranded DNA domain of the oligo3-4 was a binding sequence of TN5 transposase.

Tn5 transposase, sequence (Q46731 whole entry, the tested form may be a part, one chain of several): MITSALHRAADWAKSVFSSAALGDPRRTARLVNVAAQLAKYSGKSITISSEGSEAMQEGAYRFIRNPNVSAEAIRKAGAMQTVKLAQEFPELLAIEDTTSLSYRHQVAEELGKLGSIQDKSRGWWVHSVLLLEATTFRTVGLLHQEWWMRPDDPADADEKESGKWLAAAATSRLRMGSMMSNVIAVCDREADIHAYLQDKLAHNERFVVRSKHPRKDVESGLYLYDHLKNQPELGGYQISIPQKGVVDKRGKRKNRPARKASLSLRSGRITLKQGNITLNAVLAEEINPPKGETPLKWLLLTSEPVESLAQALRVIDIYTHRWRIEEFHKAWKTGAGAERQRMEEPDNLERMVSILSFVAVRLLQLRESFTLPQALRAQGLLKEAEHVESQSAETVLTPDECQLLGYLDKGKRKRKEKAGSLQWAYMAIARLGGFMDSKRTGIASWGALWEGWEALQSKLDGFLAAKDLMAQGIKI

B1: oligo3-4 free Tn5 adaptor (mixed)
DNA 1: GTCTCGTGGGCTCGGAGATGTGTATAAGAGACAG
DNA 2: CTGTCTCTTATACACATCT
As to B1, the binding result was “binds”.
